Reference: patent US20250059285A1 (ARGENX, published 2025)

Assays:
[1] = biological target: T1, cynomolgus Gal10-His (WGS isoform) (cynomolgus); experiment: SPR, summary table, cynomolgus_WGS Gal10
T1 construct: also called cynomolgus antigen

human Gal10-His [2] = biological target: T2, human Gal10-His (human, UniProt Q05315 2-142, limits assumed); experiment: SPR Biacore 3000, hFab on captured human Gal10-His; column head prints (M), the text gives nM
T2 construct: also called hGal10-His; human Gal10-His tagged; not shown: His tag
T2 sequence: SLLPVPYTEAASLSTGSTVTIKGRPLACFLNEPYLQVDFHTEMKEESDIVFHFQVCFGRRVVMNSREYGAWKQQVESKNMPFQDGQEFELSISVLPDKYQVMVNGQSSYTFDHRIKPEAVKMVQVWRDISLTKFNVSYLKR

human Gal10-His [3] = biological target: T2, human Gal10-His; experiment: SPR slope against calibrators on captured Gal10-His; sample 2 weeks at 37 C
Description: (§1) The binding properties of the seven selected clones following two weeks of temperature stress was analysed using an optimized capture method on a Biacore 3000 instrument. The binding properties of the stressed samples were determined, compared to the calibration point, and expressed as a percentage of Relative Activity (% RA).
(§2) Briefly, a capture method was set-up on a Biacore 3000 instrument. For this purpose, a CM5 chip was coated with a monoclonal anti-His antibody (4000 RU), then a fixed concentration of the human Gal10-His (25 μg/mL) was captured on the anti-His chip before receiving duplicate injections of the calibrators, QC samples and temperature stressed samples of each clone. The slope of each injected sample was then calculated using the BIA evaluation software. Concentrations of the QC samples and temperature stressed samples were back-calculated by interpolating the obtained slopes of these samples to the calibrator curve. Obtained values were within +/−20% of the nominal concentration of the tested samples and are expressed as average relative accuracy (avg % RA) (Table 13).

[4] = biological target: T1, cynomolgus Gal10-His (WGS isoform); experiment: SPR Biacore 3000, hFab on cynomolgus Gal10-His (WGS) captured by anti-His CM5
Outline: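 Fab binding measured by SPR on Biacore 3000, with His-tagged human or cynomolgus (WGS isoform) Gal10 captured on an anti-His antibody-coated CM5 chip. Clones applied either at two concentrations (cynomolgus only) or as a serial dilution.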

human Gal10-His [5] = biological target: T2, human Gal10-His; experiment: SPR, summary table, human Gal10
[6] = biological target: T3, recombinant human Charcot-Leyden crystals (crystalline galectin-10) (human, UniProt Q05315 2-142, limits assumed); experiment: cell-based or functional assay
T3 sequence: T2 sequence

human Gal10-His [7] = biological target: T2, human Gal10-His; experiment: SPR Biacore 3000, hFab on captured human Gal10-His
From the text: For this purpose, two approaches were used. In the first, two concentrations of the selected clones were applied on cynomolgus (WGS isoform) Gal10-His capture on a CM5 chip coated with a monoclonal anti-His antibody. The second approach involved a serial dilution that was applied on human or cynomolgus (WGS isoform) Gal10-His in the same set-up.
Further characterization of the cynomolgus cross-reactivity of these clones highlighted g24F02_N53A and g23H09.

human Gal10-His [8] = biological target: T2, human Gal10-His; experiment: SPR slope against calibrators on captured Gal10-His; T0 sample
Description: as §1, §2

human Gal10-His [9] = biological target: T2, human Gal10-His; experiment: SPR against T0 reference; sample 4 weeks at 5 C, then nebulized
Description: The functional active concentration of the candidates was then assessed by SPR on a Biacore 3000 instrument (FIG. 4). All samples were evaluated with methods meeting the standard qualification criteria. Aliquots were tested at predefined test concentrations against titration curves from reference samples (T0, −80° C. storage) and in the presence of quality control (QC) samples covering a range of 70-130% relative activity (% RA) towards the reference material.
comparison/reference ⁽¹⁾ samples correspond to aliquots kept at +37° C. for 4 weeks ⁽²⁾ samples correspond to aliquots kept at +5° C. for 4 weeks prior to nebulization. In brief, samples were nebulized with an Aerogen Solo active vibrating mesh nebulizer that converted a drug solution into an inhalable aerosol. Three different devices for each time-point were used per clone and results are reported by the device (nebulizer) serial number. In case of device fouling, indicated by longer nebulization times […]

[10] = biological target: T1, cynomolgus Gal10-His (WGS isoform); experiment: SPR on cynomolgus Gal10-His (WGS isoform)
human Gal10-His [11] = biological target: T2, human Gal10-His; experiment: summary of periplasmic extract screening (BLI or SPR)

B1: g23H09 (Fab) (Fab, V domains shown)
VH: EVQLLESGGGLVQPGGSLRLSCAASGFTFRSYDMSWVRQAPGKGLEWVSAIAQFQHWTYYADSVKGRFTISRDNSKNTLYLQMNSLRAEDTAVYYCATTHGIGTLGFGSWGQGTLVTVSS
VL: SYELTQPLSVSVALGQTARITCDGNNIGSKSAQWYQQKPGQAPVLVIYADEYRPEGIPERFSGSNSGNTATLTISRAQAGDEADYYCQVWDGSAAVFGGGTQLTVL
notes: same VH/VL
- Kd [1]: 9.9 nM
- koff [1]: 0.0095 s⁻¹
- Kd (human Gal10-His [2]): 5.34 nM
- % Relative Activity (RA) on Biacore (human Gal10-His [3]): 78%
- Amplitude R0 [4]: 589 RU
- koff [4]: 0.0095 s⁻¹
- kon [4]: 950000 M⁻¹ s⁻¹
- Kd (human Gal10-His [5]): 5.34 nM
- koff (human Gal10-His [5]): 0.0031 s⁻¹
- recGal10 crystal dissolution EC50 (T2 h), Assay 1, nebulized [6]: 297 µg/mL
- recGal10 crystal dissolution EC50 (T2 h), Assay 1, stressed (4 W at 37 C) [6]: 361 µg/mL
- recGal10 crystal dissolution EC50 (T2 h), Assay 1, unstressed (T0) [6]: 252 µg/mL
- recGal10 crystal dissolution EC50 (T2 h), Assay 2, nebulized [6]: 209 µg/mL
- recGal10 crystal dissolution EC50 (T2 h), Assay 2, stressed (4 W at 37 C) [6]: 191 µg/mL
- recGal10 crystal dissolution EC50 (T2 h), Assay 2, unstressed (T0) [6]: 190 µg/mL
- fold better affinity than g7B07 (human Gal10-His [7]): 1.7 fold
- fold better off-rate than g7B07 (human Gal10-His [7]): 1.9 fold
- % Relative Activity (RA) on Biacore (human Gal10-His [8]): 98%
- % relative activity by SPR (human Gal10-His [9]): 119%
- fold better affinity than g7B07 [10]: 7 fold
- kd, fold compared to g7B07 (BLI or SPR) (human Gal10-His [11]): 2.5 fold
